Measured values taken from the supplement of paper PMC9112550, “Optimization of the antimicrobial peptide Bac7 by deep mutational scanning” (BMC Biology, 2022).

Tested on: Escherichia coli TOP10
Assay: shrunken log2 fold change of peptide-encoding DNA abundance (4.5 h post-induction vs induction); higher = less antimicrobial activity (less host growth inhibition)
Conditions: time post-induction: 4.5 h; library: site-saturation at positions 5, 18, 19, 20
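Note: peptides expressed intracellularly from a pBAD plasmid library in pooled LB shake-flask culture, induced with 0.3% L-arabinose, DNA abundance read by NGS, three biological replicates, DESeq2 with apeglm shrinkage.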

Row | Sequence | shrunken log2 fold change
1 | RRIRPRPPRLPRPRPRPYMWPRP | -0.455
2 | RRIRQRPPRLPRPRPRPMMFPRP | -0.3
3 | RRIRTRPPRLPRPRPRPCGVPRP | -0.175
4 | RRIRTRPPRLPRPRPRPGDSPRP | 0.152
5 | RRIRFRPPRLPRPRPRPKNAPRP | -0.0814
6 | RRIRNRPPRLPRPRPRPNGYPRP | -0.0975
7 | RRIRIRPPRLPRPRPRPCSNPRP | -0.11
8 | RRIRMRPPRLPRPRPRPTVGPRP | 0.146
9 | RRIRMRPPRLPRPRPRPWVHPRP | 0.031
10 | RRIRIRPPRLPRPRPRPQKHPRP | -0.46
11 | RRIRIRPPRLPRPRPRPMSVPRP | 0.0466
12 | RRIRDRPPRLPRPRPRPLELPRP | -0.014
13 | RRIRYRPPRLPRPRPRPAHWPRP | 0.0585
14 | RRIRKRPPRLPRPRPRPNACPRP | 0.0357
15 | RRIRWRPPRLPRPRPRPAWFPRP | 0.251
16 | RRIRNRPPRLPRPRPRPLNCPRP | -0.415
17 | RRIRCRPPRLPRPRPRPLWAPRP | 0.321
18 | RRIRSRPPRLPRPRPRPWCEPRP | -0.291
19 | RRIRPRPPRLPRPRPRPARHPRP | 0.616
20 | RRIRCRPPRLPRPRPRPPEQPRP | 2.18
21 | RRIRTRPPRLPRPRPRPHPLPRP | -0.503
22 | RRIRMRPPRLPRPRPRPFLTPRP | 0.0674
23 | RRIRCRPPRLPRPRPRPYPVPRP | -0.441
24 | RRIRCRPPRLPRPRPRPRTVPRP | 0.0809
25 | RRIRNRPPRLPRPRPRPFNYPRP | -0.752

Row | Sequence | shrunken log2 fold change
26 | RRIRCRPPRLPRPRPRPTPMPRP | 0.534
27 | RRIRYRPPRLPRPRPRPRAMPRP | -0.0749
28 | RRIRSRPPRLPRPRPRPDVPPRP | -0.0936
29 | RRIRDRPPRLPRPRPRPYLRPRP | -0.0137
30 | RRIRTRPPRLPRPRPRPGFIPRP | -0.585
31 | RRIRMRPPRLPRPRPRPQDTPRP | -0.0435
32 | RRIRARPPRLPRPRPRPEMLPRP | 0.234
33 | RRIRRRPPRLPRPRPRPKDNPRP | 0.0969
34 | RRIRQRPPRLPRPRPRPKYNPRP | -0.879
35 | RRIRIRPPRLPRPRPRPPDAPRP | 0.5
36 | RRIRGRPPRLPRPRPRPKLDPRP | 1.2
37 | RRIRGRPPRLPRPRPRPRPAPRP | 1.07
38 | RRIRDRPPRLPRPRPRPDTPPRP | 0.0945
39 | RRIRKRPPRLPRPRPRPKEQPRP | -0.0322
40 | RRIRTRPPRLPRPRPRPKHTPRP | -0.0343
41 | RRIRYRPPRLPRPRPRPNYFPRP | -1.69
42 | RRIRTRPPRLPRPRPRPGMAPRP | -0.0805
43 | RRIRMRPPRLPRPRPRPCEFPRP | 0.00328
44 | RRIRHRPPRLPRPRPRPILKPRP | -0.348
45 | RRIRMRPPRLPRPRPRPWMDPRP | -0.0276
46 | RRIRDRPPRLPRPRPRPDGMPRP | 0.232
47 | RRIRQRPPRLPRPRPRPHFFPRP | -0.0162
48 | RRIRVRPPRLPRPRPRPKHEPRP | -0.0072
49 | RRIRLRPPRLPRPRPRPDIIPRP | -0.173
50 | RRIRIRPPRLPRPRPRPKMLPRP | 0.154
